Assay results taken from a protein production outcome set (Wang et al. 2014).

Experiment: label from the status in PepcDB records

| Sequence | protein production |
| --- | --- |
| MGEKKGLSFFEKYLSLWVALCIVLGILIGKFMPSLPRTLSKLTIANVNMAIAVLIWAMIYPMMVKVDFSAIKRVHKGQMLKGLIVTWVTNWLIKPFSMFLISSFFIGTIFSMKLGLIDPSLAKEYIAGAILLGAAPCTAMVFVWSYLADGDPLYTLVQVATNDIIILFAFAPIVGFLMGLNKVPVPYDTLLLSVVLFVVIPLSAGYLSRRYILKTKGHKWFEQEFLPKLSTISIVGLLLTLILLFSFQGEIILENPLHIALIAIPLTIQTYFIFAIAYGWAWIWKLPHKVAAPASFIGASNFFELAVAVAIALFGLDSGAALATVVGVLEEVPIMLSLVWIANKTRHFFTAKFETGSGSKAWALLRNSLPYYPYCPNHEDIRKDTYKQMNLYPVLFFLG | failed |
| MTLPPYHTPLPAETLRALSIPAPWTFGLADRVRFGELDAIGHVNHTAYLRWYESFRLPFLKARHVTDYGPTSPRLVLKQVHCTYLAEMGMGEDYVITGRVSNFRTTSFTMEFACWRLGDAVECTSEGSAVVVLLNRDGSGRYPIPEAGRASFVTEDGVLAAG | not failed |
| MMKKLTALFVASTLALGAANLAHAAETTTAPSDSKPMMMHHKGGPGQHDMMFKGLNLTDAQKQQIRDIMKSQRENMKRPSLEERRAMHDLIASDTFDKAKAEAQIDKMEAQHKAMALSRLETQNKIYNILTPEQKKQFNANFEKHLTERNAPAGKMPAPAE | failed |
| MNINLSVPYAAEGPGPTINTLGQVDGEDVVSISSADLDETEGNLNMTTVSVRSGMTLSQVISRWLFTDDTIVPIEQVFPPGQSTEEVEESNRTAFISSESSATIAAMNYLNIPVEVEVAEVLTDSAATGIFEPGDKLLSIDGTAISTPGDAQTIVRSKAPGDEITISYERNDAESQATITLREHPDDSSVALLGISMLSVPSSAIEVDYNLEDIGGPSAGMMFSLAVVDKLSPGALNGGKFVAGTGTIAEDGSVGPIGGIAHKVRAAEDAGAEVFLSPADNCAEAMSAKPQDMTILKVDSLSQAIDQMAAYNEGLEHHHHHH | not failed |
| MQKFIIHKGIACPLEYANIDTDQIIPKQFLLAVSKQGFGKHLFHDLRYLDDKESVLNMDFNLNKKEYQNSSILVSFENFGSGSSREHAPWALVDYGIRAIIAPSFADIFKNNALGNGLLTIELAKDEVLEIVDELKKSQDKNIEISLLEKRVFFKDKIFSFDLDDFHRICLLEGLDNIALTLKHEAQIKAYEKNSKSFLV | not failed |
| MKNVLYTLFAISICLMLGKLANYLLAALPASLYGMIIYALFLQLNWFSPDKITKTNQWFIKHMGVCLVPAGMGIINHFQLIQQHGIALVVIIFSSTFILLTVIGYLSERYLITPDNIKSKAPTGSR | failed |
| MSLKLIGMLDSPYVRRVAISLKSLGLPFEHHSLSVFSTFEQFKAINPVVKAPTLVCEGGEVLMDSSLIIDYLETLAGPQRSLMPTALPQRLRELRLVGLALAACEKSVQIVYERNLRPAEKQHGPWLERVGGQLQAAYGELEQELQKQPLPRDGSLGQAGISLAVAWSFSQMMVADQFNPGQFPAVRGFAEYAEQLPVFLATPATEGHHHHHH | not failed |
| MLANQIKYVILHLTQSIIEYSMANLNCIKAVLAEKGIMSKWLAKTLKKDPATVSKWCNNHSQPDLYTLARIAEVLDVDIHKLICHTKEE | failed |
| MTRTFDPIREMDRLLSDVTRTPATVAVPMDLYREGDDYTVAVDLPGVDPASIDIDVDDRTLTIRAERAAKVAKEAQWLSRERAMGTFARQLTLGHGLATDRITAEYTDGVLTLTIPVAETAKPRKVEVRHGSTTIDAMTDQAQVGSGEHQEQ | failed |
| MLLSFDNKAIADWAKLSGDYNPIHFEVERARETGANDIIVHGMLPLLHIKQRLSTVLPADTGRDWVSVKAMFRSPVLRQLPHALEIQPGKQRSRFSLRATHDASEVMAGSVYRSVPAESPEQPASFSIDRQLFREKRAVFAEAFPDFDRAWLLVDALTFSQFLSSEVPFSIVRDLAKMSGIASQHELMDAALTVQTAHTVMVEPELFRMPLSQLKDPGEIRCELHAPVTVPNSKDTLSGLSQFTVRLDGRPVMQSEVGLLVRFKS | failed |
| MATPAYMSITGTKQGLITAGAFTEDSVGNTYQEGHEDQVMVQGFNHEVIIPRDPQSGQPTGQRVHKPVVITKVFDKASPLLLAALTSGERLTKVEIQWYRTSAAGTQEHYYTTVLEDAIIVDIKDYMHNCQDPGNAHFTHLEDVHFTYRKITWTHEVSGTSGSDDWRSPVAG | not failed |
| MTKNAASKARIAYVCTECGTEYSKWQGQCTECGTWNCLSQITLGNAGSVKNPTMKHGNWTGQLDPPKITALKDVQHSEQARISTGIGEFDRVLGGGLVAGAVVLIGGDPGIGKSTLLLQALARMASNLPTLYVTGEESLAQVAGRAVRLDLPLEGLNALAETGIESILQHASSARPRLIVADSVQTLWTEALTAAPGSVSQVRESAAQLVRYAKETGTTVFLVGHVTKEGGIAGPRVLEHMVDAVLYFEGESGSRFRLLRAFKNRFGAVNELGVFAMSEKGLKEVANPSAIFLSGRNSDQPGSCVMVTREGTRPLMVEVQALVDTSPLSNPRRVTVGLEQNRLAMLLAVLHRHGNVLVGDQDVFINIVGGIRVQETAADLPVLLAVRSSLCNRALPEKTIAFGEVGLSGEIRPVPNGEERLREAATHGFKHAIVPKANAPKSAIKDMQIIAVERLDQALEASY | failed |
| MSDNSKTRVVVGMSGGVDSSVTALLLKEQGYDVIGIFMKNWDDTDENGVCTATEDYKDVVAVADQIGIPYYSVNFEKEYWDRVFEYFLAEYRAGRTPNPDVMCNKEIKFKAFLDYAITLGADYVATGHYARVARDEDGTVHMLRGVDNGKDQTYFLSQLSQEQLQKTMFPLGHLEKPEVRRLAEEAGLSTAKKKDSTGICFIGEKNFKNFLSNYLPAQPGRMMTVDGRDMGEHAGLMYYTIGQRGGLGIGGQHGGDNAPWFVVGKDLSKNILYVGQGFYHDSLMSTSLEASQVHFTREMPEEFTLECTAKFRYRQPDSKVTVHVKGEKTEVIFAEPQRAITPGQAVVFYDGEECLGGGLIDNAYRDGQVCQYI | not failed |
| MTQMKIFVIGAHGQIGKKIVSKLVAQGDQVYAGIRQPEQAEAFEDAGAQPVQFNLMAQPEDLALAFNGMDAIVFAAGSGGQTGYDMTLMIDLDGAVKSMVAAKIAGVKRYVIISAEFTPDRSRWPRALQPYYVAKYYADEWLKNRTQLDYTILQPGTLINDAGTGKVTVNPDVGGEITRDDVATFTVQTLHTPATVGKTIALINGDTPISKAVQQA | failed |
| SWSDLFRKCTTDEEQEMLQFLIDNKDSEILRAFVSERSILLHEEYLKWESYMTRRAKFHRLAADFAMFLSILTSLIVIFCLVYSMYQLFKTPDEHSAYDPSTRPKPKTQEVKTLKIRTE | not failed |
| MKKALISTLFGVSLAFAKPYTIDKANSSVWFEVKHFTFNETRGAFDNFDGKIDLEPNTKMLSVFEGNIDVKSVNTRDRKRDNHLKTADFFDVVKYPKGSFKMTKYEDGKIYGDLTLRGVTKPVVLEAKIQAPLQNPMNKKEFMVLQAEGKINRKDFGIGKTFSDAVVGDEVKIELKLEAYAQ | failed |
| MSDIELLETLAGTDQPRVMATIIHVEGSSYRKEGAMMLFQEDGTQVGLLSGGCLETDLTIKAQKVWQEQLPRTVVYDLSSEDDLSWGQGSGCNGTISVLLEPVDLKLRQHLKRVYDYLCAGKSVFHVKKLSTSGAVLEYAFILDESVYFGEWHSGHPVEWIRKIDENEEPLMFTHIYSPKERLIIFGAGPDVPPLVTFASNVGFYTVVTDWRPNQCEKHFFPDADEIIVDFPADFLRKFLIRPDDFVLIMTHHFQKDQEILHFLLEKELRYIGILGSKERTRRLLQNRKPPDHLYSPVGLSIDAQGPEEIAISIVAQLIQLIRSRKQASSPFSYLFQPESCKH | not failed |
| SAGTGVVAVYGEGAMTETKQKSPFSVKVGLAQMLRGGVIMDVVNAEQARIAEEAGACAVMALERVPADIRAQGGVARMSDPEMIKEIKNAVTIPVMAKARIGHFVEAQILEAIGVDYVDESEVLTLADEDNHINKHNFKIPFVCGCRNLGEALRRIREGAAMIRTKGEAGTGNVVEAVRHVRSVNGAIRLLRSMDDDEVFTYAKKIAAPYDLVVQTKELGRLPVVQFAAGGVATPADAALMMQLGCDGVFVGSGVFKSGDPVKRAKAIVQAVTNYRDAAVLAEVSCGLGEAMVGLNLDDKVERFASRSE | not failed |
